To fix the notation:
B1: BRCT domain of MtbLigA, His-tagged (domain or fragment)
chain: SVPRTLAGLTIVVTGSLTGFSRDDAKEAIVARGGKAAGSVSKKTNYVVAGDSPGSKYDKAVELGVPILDEDGFRRLLADGPASRT
B2: GST-tagged MtbXthA (enzyme)
chain: MPDGTIDGGHPQRPASPRLRSPLLRLATWNVNSIRTRLDRVLDWLGRADVDVLAMQETKCPDGQFPALPLFELGYDVAHVGFDQWNGVAIASRVGLDDVRVGFDGQPSWSGKPEVAATTEARALGATCGGIRVWSLYVPNGRALDDPHYTYKLDWLAALRDTAEGWLRDDPAAPIALMGDWNIAPTDDDVWSTEFFAGCTHVSEPERKAFNAIVDAQFTDVVRPFTPGPGVYTYWDYTQLRFPKKQGMRIDFILGSPALAARVMDAQIVREERKGKAPSDHAPVLVDLHAG

Assay [1] deals with B1. The experiment in a line: ITC.
Assay [2] addresses B2. The experiment in a line: SPR.
The target in assay [3] is Full-length His-tagged MtbLigA (M. tuberculosis, UniProt P9WNV1 1-691). Nature of the assay: SPR.

As to DGQPSWSGKP [DGQ peptide (MtbXthA 104-113)], the Kd in assay [1] is 2.47 µM.

For B1, binding in assay [2] was put at a Kd of 0.0714 µM.

Consider YDVAHVGFD [YDV peptide (MtbXthA 75-83)], for which, in assay [1], the Kd was found to be 88.5 µM.

The molecule B2 displayed a Kd in assay [3] of 0.0677 µM.

For the origin of these results see PMC7530888 (Nucleic Acids Research, 2020).
